Laboratory results: patent US20240209086A1 (PETMEDIX, published 2024)

Molecular target: canine CD3 on canine T cells (canine PBMC) (canine, UniProt P27597 22-202)
Assay: cell-based or functional assay

canine CD3 on canine T cells (canine PBMC), sequence (P27597 22-202 limits assumed, chain 1 of 3): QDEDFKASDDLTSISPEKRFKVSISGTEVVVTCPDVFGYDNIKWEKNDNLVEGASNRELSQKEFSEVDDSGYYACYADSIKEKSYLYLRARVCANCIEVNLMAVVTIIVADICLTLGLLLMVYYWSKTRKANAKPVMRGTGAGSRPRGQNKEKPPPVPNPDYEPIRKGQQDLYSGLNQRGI
canine CD3 on canine T cells (canine PBMC), sequence (chain, as listed by the source limits assumed, chain 2 of 3): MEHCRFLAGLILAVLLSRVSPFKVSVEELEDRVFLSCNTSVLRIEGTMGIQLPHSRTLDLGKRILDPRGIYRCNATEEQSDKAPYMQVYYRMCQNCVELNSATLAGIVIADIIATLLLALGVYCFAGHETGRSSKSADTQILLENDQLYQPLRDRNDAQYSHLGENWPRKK
canine CD3 on canine T cells (canine PBMC), sequence (chain, as listed by the source limits assumed, chain 3 of 3): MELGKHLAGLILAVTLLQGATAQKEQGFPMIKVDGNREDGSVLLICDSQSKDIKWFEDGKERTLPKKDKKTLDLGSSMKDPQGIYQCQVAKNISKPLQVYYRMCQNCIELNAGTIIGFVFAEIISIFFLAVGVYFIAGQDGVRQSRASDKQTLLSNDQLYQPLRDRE

| Binder | CD25 Activation, Day 6, IS | CD25 Activation, Day 6, PB | CD25 Activation, Day 9, IS | CD25 Activation, Day 9, PB | IFNy Concentration pg/ml, Day 6, IS | IFNy Concentration pg/ml, Day 9, IS | IFNy Concentration pg/ml, Day 9, PB | Ki67 Proliferation, Day 6, IS | Ki67 Proliferation, Day 6, PB | Ki67 Proliferation, Day 9, IS | Ki67 Proliferation, Day 9, PB |
| --- | --- | --- | --- | --- | --- | --- | --- | --- | --- | --- | --- |
| PMX175 (monospecific anti-canine CD3, canine IgG-B effector function deficient Fc) (antibody, V domains shown) VH: ELTLQESGPGLVKPSQTLSLTCVVSGGSVTSTYYWNWIRQRPGRGLEWMGYWTGTTNYNPAFQGRISITADTAKNQFSLQLSSMTTEDTAVYYCAREDLVTVGSGAFNYWGQGTLVTVSS VL: SYVLTQLPSKNVTLKQPAHITCGGDNIGSKSVHWYQQKLGQAPVLIIYYDSSRPTGIPERFSGANSGNTATLTISGALAEDEADYYCQVWDSSATWVFGEGTQLTVL | 14.5 | 8.76 | 10 | 9.46 | 51 pg/mL | 233 pg/mL | 706 pg/mL | 2.03 | 0.59 | 1 | 0.95 |
| PMX157 (monospecific anti-canine CD3, canine IgG-B effector function deficient Fc) (antibody, V domains shown) VH: ELTLQESGPGLVKPSQTLSLTCVVSGGSVTSSYFWNWIRQRPGRGLEWMGYWTGSTIYSPAFQGRISITPDTAKNQFSLQLSSMTTEDTAVYYCSREGGSTLGAFAYWGQGTLVTVSS VL: SYVLTQLPSKNVTLKQPAHITCGGDKIGSKSVHWYQQKLGQAPVLIIYYDSSRPTGIPERFSGANSGNTATLTISGALAEDEADYYCQVWDSSAKASVFGGGTHLTVL | 9.65 | 11.6 | 9.96 | 8.72 | 44.4 pg/mL | 209 pg/mL | 3140 pg/mL | 1.24 | 0.4 | 0.85 | 0.34 |
| PMX170 (monospecific anti-canine CD3, canine IgG-B effector function deficient Fc) (antibody) heavy: EVQLVESGGDLVKPGGSLRLSCVASGFTFSSYHMSWVRQAPGKGLQWVAYSNSGGSRTSYADAVKGRFTISRDNAKNTLYLQMSSLRAEDTAVYYCASEGGGGRYGFKDYGMDYWGHGTSLFVSSASTTAPSVFPLAPSCGSTSGSTVALACLVSGYFPEPVTVSWNSGSLTSGVHTFPSVLQSSGLYSLSSMVTVPSSRWPSETFTCNVAHPASKTKVDKPVPKRENGRVPRPPDCPKCPAPESLGGPSVFIFPPKPKDTLLIARTPEVTCVVVDLGREDPEVQISWFVDGKQMQTAKTQPREEQFNGTYRVVSVLPIGHQDWLKGKQFTCKVNHIGLPSPIERTISKARGQAHQPSVYVLPPSREELSKNTVSLTCLIKDFFPPDIDVEWQSNGQQEPESKYRTTPPQLDEDGSYFLYSKLSVDKSRWQRGDTFICAVMHEALHNHYTQKSLSHSPGK VL: SYVLTQLPSKNVTLKQPAHITCGGDNIGSKSVHWYQQKLGQAPVLIIYYDSSRPTGIPERFSGANSGNTATLTISGALAEDEADYYCQVWDSSAKAWVFGEGTQLTVL | 9.44 | 11.8 | 7.39 | 11.3 | 71.3 pg/mL | 114 pg/mL | 282 pg/mL | 1.99 | 0.27 | 0.79 | 0.47 |
| PMX168 (monospecific anti-canine CD3, canine IgG-B effector function deficient Fc) (antibody, V domains shown) VH: ELTLQESGPGLVKPSQTLSLTCVVSGGSVTRSYYWNWIRQRPGRGLEWMGYWTGTTNYNPAFQGRISITADTAKNQCSLQLSSMTTEDTAVYYCAREGGKLLGAFGHWGQGTLVTVSS VL: SYVLTQLPSKNVTLKQPAHITCGGDKIGSKSVHWYQQKLGQAPVLIIYYDSSRPTGIPERFSGANSGNTATLTISGALAEDEADYYCQVWDSSAKASVFGGGTHLTVL | 7.17 | 13.4 | 8.87 | 6.52 | 61.1 pg/mL | 301 pg/mL | 2450 pg/mL | 1.57 | 0.15 | 1.53 | 0.36 |
| PMX171 (monospecific anti-canine CD3, canine IgG-B effector function deficient Fc) (antibody) heavy: EVQLVESGGDLVKPGGSLRLSCEASGFTFSSYHMSWVRQAPGKGLQWVAYINNGGSGTSYADAVKGRFTISRDNAKNTLYLQMNSLRAEDTAVYFCASEGGGKRYGYKDYGMDYWGHGTSLFVSSASTTAPSVFPLAPSCGSTSGSTVALACLVSGYFPEPVTVSWNSGSLTSGVHTFPSVLQSSGLYSLSSMVTVPSSRWPSETFTCNVAHPASKTKVDKPVPKRENGRVPRPPDCPKCPAPESLGGPSVFIFPPKPKDTLLIARTPEVTCVVVDLGREDPEVQISWFVDGKQMQTAKTQPREEQFNGTYRVVSVLPIGHQDWLKGKQFTCKVNHIGLPSPIERTISKARGQAHQPSVYVLPPSREELSKNTVSLTCLIKDFFPPDIDVEWQSNGQQEPESKYRTTPPQLDEDGSYFLYSKLSVDKSRWQRGDTFICAVMHEALHNHYTQKSLSHSPGK VL: SYVLTQLPSKNVTLKQPAHITCGGDNIGSKSVHWYQQKLGQAPVLIIYYDSSRPTGIPERFSGANSGNTATLTISGALAEDEADYYCQVWDSSAKAWVFGEGTQLTVL | 11.9 | 13.7 | 10.4 | 6.22 | 106 pg/mL | 146 pg/mL | 277 pg/mL | 0.98 | 0.57 | 1.91 | 0.52 |

Further lines, results first:

| CD25 Activation, Day 6, IS | CD25 Activation, Day 6, PB | CD25 Activation, Day 9, IS | CD25 Activation, Day 9, PB | IFNy Concentration pg/ml, Day 6, IS | IFNy Concentration pg/ml, Day 9, IS | IFNy Concentration pg/ml, Day 9, PB | Ki67 Proliferation, Day 6, IS | Ki67 Proliferation, Day 6, PB | Ki67 Proliferation, Day 9, IS | Ki67 Proliferation, Day 9, PB | Binder |
| --- | --- | --- | --- | --- | --- | --- | --- | --- | --- | --- | --- |
| 7.37 | 8.61 | 8.21 | 8.48 | 17.4 pg/mL | 627 pg/mL | 591 pg/mL | 0.95 | 0.089 | 1.03 | 0 | PMX174 (monospecific anti-canine CD3, canine IgG-B effector function deficient Fc) (antibody) heavy: EVQLVESGGDLVKAGVSLRLSCVASGFTFSNYHLNWVRQAPGKGPQWVASINSGGSSTYYADAVKGRFTISRDNAKNTLYLQMNSLRAEDTAVYYCASDHGSYRGMDYWGHGTSLFVSSASTTAPSVFPLAPSCGSTSGSTVALACLVSGYFPEPVTVSWNSGSLTSGVHTFPSVLQSSGLYSLSSMVTVPSSRWPSETFTCNVAHPASKTKVDKPVPKRENGRVPRPPDCPKCPAPESLGGPSVFIFPPKPKDTLLIARTPEVTCVVVDLGREDPEVQISWFVDGKQMQTAKTQPREEQFNGTYRVVSVLPIGHQDWLKGKQFTCKVNHIGLPSPIERTISKARGQAHQPSVYVLPPSREELSKNTVSLTCLIKDFFPPDIDVEWQSNGQQEPESKYRTTPPQLDEDGSYFLYSKLSVDKSRWQRGDTFICAVMHEALHNHYTQKSLSHSPGK VL: SYVLTQLPSKNVTLKQPAHITCGGDNIGSKSVHWYQQKLGQAPVLIIYYDSSRPTGIPERFSGANSGNTATLTISGALAEDEADYYCQVWDSSAKAVFGGGTHLTVL |
| 10.3 | 9.61 | 12.3 | 10.1 | 30.3 pg/mL | 278 pg/mL | 594 pg/mL | 0.93 | 1.45 | 2.2 | 0 | PMX176 (monospecific anti-canine CD3, canine IgG-B effector function deficient Fc) (antibody, V domains shown) VH: EVQLVESGGDLVKPGGSLRLSCVASGFTFSSYHMSWVRQAPGKGLQWVAYINSAGSTTSYTDAVQGRFTISRDNAKNTLYLQMNSLRAEDTAVYYCASEWIFMPWGQGSLVTVSS VL: SYVLTQLPSKNVTLKQPAHITCGGDNIGSKSVHWYQQKLGQAPVLIIYYDSSRPTGIPERFSGANSGNTATLTISGALAEDEADYYCQVWDSSAKARVFGEGTQLTVL |
| 8.02 | 12.6 | 13.7 | 18.4 | 28.8 pg/mL | 763 pg/mL | 2210 pg/mL | 1.41 | 1.37 | 3.19 | 0.47 | PMX177 (monospecific anti-canine CD3, canine IgG-B effector function deficient Fc) (antibody, V domains shown) VH: EVTLQESGPGLVKPSQTLSLTCVVSGGSVTSSFYWNWIRQRPGRGLEWMGYWTGSTNYNPAFQGRISITADTAKNQFSLHLGSMTTDDTAMYYCAREEGSWGRVYFDYWGQGTLVTVSS VL: SYVLTQLPSKNVTLKQPAHITCGGDNIGSKSVHWYQQKLGQAPVLIIYYDSSRPTGIPERFSGANSGNTATLTISGALAEDEADYYCQVWDSSTKTWVFGEGTQLTVL |
| 7.09 | 4.93 | 11.6 | 12.8 | 63.5 pg/mL | 802 pg/mL | 1290 pg/mL | 1.55 | 0 | 2.66 | 0.25 | PMX167 (monospecific anti-canine CD3, canine IgG-B effector function deficient Fc) (antibody, V domains shown) VH: EVKLVESGGDLVKPGGSLRLSCMASGFTLNNYYMSWVRQAPGKGLQWVAYIKSGGSDTSYVDAVKGRFTISRDNAKNTLHLQMNSLRVEDTAVYYCATDGYIWAWGQGTLVTVSS VL: SYVLTQLPSKNVTLKQPAHITCGGDNIGSKSVHWYQQKLGQAPVLIIYYDNSRPTGIPERFSGAKSGNTATLTISGALAEDEADYYCQVWDSSSKAYVFGSGTQLTVL |
| 11.4 | 14.5 | 9.15 | 22 | 67.6 pg/mL | 112 pg/mL | 2780 pg/mL | 2.77 | 0.95 | 0.92 | 1.28 | PMX166 (monospecific anti-canine CD3, canine IgG-B effector function deficient Fc) (antibody, V domains shown) VH: ELTLQESGPGLVKPSQTLSLTCVVSGGSVTSSYFWNWIRQRPGRGLEWMGYWTGSTIYSPAFQGRISITPDTAKNQFSLQLSSMTTEDTAVYYCSREGGSTLGAFAYWGQGTLVTVSS VL: SYVLTQLPSKNVTLKQPAHITCGGDNIGSKSVHWYQQKLGQAPVLIIYYDSSRPTGIPERFSGANSGNTATLTISGALAEDEADYYCQVWDSSAKASVFGGGTHLTVL |
